Data on two molecules can be found in US20240076389A1 (NATIONAL RESEARCH COUNCIL OF CANADA, published 2024).

For test [1], the target named is T1, recombinant human AXL extracellular domain, C-terminally His8-tagged (rhAXL-ECD) (human, UniProt P30530 26-451).
T1 construct: Made in CHO cells; also called (rh)AXL-ECD His8; human AXL ECD
T1 sequence: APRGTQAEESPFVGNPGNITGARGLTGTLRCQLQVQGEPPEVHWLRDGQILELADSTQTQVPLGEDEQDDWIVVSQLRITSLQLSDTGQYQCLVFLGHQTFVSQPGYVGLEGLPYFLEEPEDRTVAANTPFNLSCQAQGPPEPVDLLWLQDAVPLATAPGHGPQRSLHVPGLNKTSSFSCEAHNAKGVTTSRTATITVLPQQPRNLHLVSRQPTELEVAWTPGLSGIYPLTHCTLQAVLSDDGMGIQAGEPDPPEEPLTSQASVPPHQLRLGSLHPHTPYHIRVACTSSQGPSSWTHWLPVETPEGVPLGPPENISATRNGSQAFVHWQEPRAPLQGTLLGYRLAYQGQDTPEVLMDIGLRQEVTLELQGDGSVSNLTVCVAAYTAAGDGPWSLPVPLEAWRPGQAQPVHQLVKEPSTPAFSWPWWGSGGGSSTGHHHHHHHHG
Kind of test: SPR, steady-state analysis (format not stated). As to the method:
For VH Hs and VHH-Fcs, binding to human and cynomolgus AXL ECD was assessed using either a Biacore T200 instrument or a Biacore 3000 instrument. Either human AXL ECD or anti-human Fc antibody was immobilized on a research-grade CM5 series S sensor chip (T200, rhAXL ECD) or a C1 sensor chip (3000, anti-human Fc) using amine coupling in acetate buffer. VHH-Fcs were captured on anti-human Fc surfaces. Either monomeric VHHs (for rhAXL ECD surfaces) or human and cyno AXL ECD (for VHH-Fc surfaces) were flowed over the surfaces at different concentration ranges. Running buffers were HBS-EP (3000) and HBS-EP+(T200). Flow rates were 10-40 ul/min. All binding studies were performed at 25° C. Surfaces were regenerated using 10 mM glycine, pH 1.5.
On the technique in general: Surface plasmon resonance follows binding to a sensor surface in real time, without labels.

The target of test [2] is T2, human AXL expressed on the cell surface of tumor cell lines (human, UniProt P30530 26-894).
T2 construct: whole, on cells; also called cell surface-expressed AXL; cell-based AXL
T2 sequence (looked up): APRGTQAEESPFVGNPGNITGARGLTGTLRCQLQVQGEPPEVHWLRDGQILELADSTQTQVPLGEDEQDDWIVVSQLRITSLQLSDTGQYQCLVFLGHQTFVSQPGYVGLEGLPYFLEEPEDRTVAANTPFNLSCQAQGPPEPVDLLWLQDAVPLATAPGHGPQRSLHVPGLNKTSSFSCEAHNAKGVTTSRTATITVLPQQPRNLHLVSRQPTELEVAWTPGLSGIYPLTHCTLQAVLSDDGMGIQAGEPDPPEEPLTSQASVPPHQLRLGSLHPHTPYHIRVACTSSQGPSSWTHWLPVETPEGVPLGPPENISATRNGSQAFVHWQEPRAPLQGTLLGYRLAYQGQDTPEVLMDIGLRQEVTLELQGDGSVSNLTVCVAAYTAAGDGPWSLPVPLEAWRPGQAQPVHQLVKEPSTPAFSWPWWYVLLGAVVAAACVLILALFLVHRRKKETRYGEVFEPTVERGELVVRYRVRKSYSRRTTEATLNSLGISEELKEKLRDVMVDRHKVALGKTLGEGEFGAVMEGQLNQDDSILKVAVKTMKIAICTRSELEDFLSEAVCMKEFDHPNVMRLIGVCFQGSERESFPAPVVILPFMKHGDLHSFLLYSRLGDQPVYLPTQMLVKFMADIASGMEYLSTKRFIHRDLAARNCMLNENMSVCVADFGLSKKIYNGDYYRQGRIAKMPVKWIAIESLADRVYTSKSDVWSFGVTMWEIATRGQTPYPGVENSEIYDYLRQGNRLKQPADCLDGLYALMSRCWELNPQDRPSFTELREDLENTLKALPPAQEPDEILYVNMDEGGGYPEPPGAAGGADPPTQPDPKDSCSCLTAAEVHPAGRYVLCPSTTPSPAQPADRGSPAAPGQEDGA
Kind of test: FACS on MDA-MB-231 luciferase cells, apparent Kd. As for the experimental part:
(§1) FACS binding assay. Adherent cells were dissociated with non-enzymatic Sigma Cell Dissociation Solution (Cat. No. C5789). Cells suspensions were added to polypropylene, V-bottom 96-well plates and incubated for 2 hours on ice with primary antibodies at concentrations ranging from 100 nM to 0.001 nM or at a single dose of 100 nM (for the non-specific control). After incubation and washes, cells were incubated with fluorescently labeled secondary antibody (Alexa Fluor® 488 anti-human IgG from Jackson Cat. No 709-546-098) for 1 hour on ice, then washed. Cell viability was determined using Fixable viability dye 450 (20 min on ice). Stained cells were fixed in 1% formaldehyde at 4° C. and stored at 4° C. until acquisition which was performed the next day.
(§2) Binding of recombinant chimeric Abs to three cell lines was assessed by FACS as described above. The apparent Bmax and Kd determination is shown below in Table 14.

Test [3] addresses T1, recombinant human AXL extracellular …. Kind of test: SPR Biacore T200, mAb captured on anti-Fc, AXL ECD flowed (no footnote in the cell). As for the experimental part:
(§3) Surface plasmon resonance. For murine mAbs, binding to human and cynomolgus AXL ECD was assessed using a Biacore T200 instrument. Briefly, either anti-mouse or anti-human Fc antibody was immobilized on a research-grade CM5 series S sensor chip using amine coupling in acetate buffer. Murine or recombinant chimeric murine-human mAbs (mouse VH/VL; human constant regions) were captured, then recombinant human or cyno AXL ECD was flowed over the surface at different concentration ranges (0.1-500 nM) depending on the antibody. The running buffer was PBS/Tween-20 and the flow rate 100 uL/min. All binding studies were performed at 25° C. Surfaces were regenerated using 10 mM glycine, pH 1.5.

Test [4] has as its target T3, recombinant cynomolgus AXL extracellular domain (cynomolgus).
T3 construct: range 1-449; also called Cyno AXL; cyno AXL ECD
Kind of test: SPR Biacore T200, mAb captured on anti-Fc, AXL ECD flowed, steady-state analysis. As for the experimental part:
as §3

Test [5] deals with T2, human AXL expressed on the cell surface …. Kind of test: FACS on SKOV3 cells, apparent Kd. As for the experimental part:
as §1, §2

Test [6] concerns the target T1, recombinant human AXL extracellular …. Kind of test: SPR Biacore T200, mAb captured on anti-Fc, AXL ECD flowed, single-cycle kinetics. As for the experimental part: as §3
The target in test [7] is T2, human AXL expressed on the cell surface …. Kind of test: FACS on NCI-H292 cells, apparent Kd. As for the experimental part:
as §1, §2

The target of test [8] is T4, mouse AXL extracellular domain (Sino cat. 51026-M08H) (mouse, UniProt Q00993 19-445).
T4 construct: extracellular domain; Bought protein; also called mouse AXL ECD
T4 sequence (looked up): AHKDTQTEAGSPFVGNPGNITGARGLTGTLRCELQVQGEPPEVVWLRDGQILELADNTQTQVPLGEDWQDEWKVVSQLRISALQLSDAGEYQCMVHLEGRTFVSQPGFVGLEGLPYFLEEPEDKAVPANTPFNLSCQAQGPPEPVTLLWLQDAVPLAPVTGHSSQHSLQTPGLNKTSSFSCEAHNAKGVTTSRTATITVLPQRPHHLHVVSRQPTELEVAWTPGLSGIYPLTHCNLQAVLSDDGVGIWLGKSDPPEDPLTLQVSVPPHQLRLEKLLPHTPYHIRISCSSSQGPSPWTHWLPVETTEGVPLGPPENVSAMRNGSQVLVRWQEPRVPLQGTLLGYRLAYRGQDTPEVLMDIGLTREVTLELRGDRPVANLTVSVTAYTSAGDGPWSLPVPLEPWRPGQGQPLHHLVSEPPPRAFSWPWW
Kind of test: ELISA on coated mouse AXL ECD (100 ng/well). As for the experimental part:
(§4) ELISA. ELISAs against human, cyno and mouse AXL ECDs were conducted by immobilizing 100 ng of each protein in wells of Nunc MaxiSorp microplates overnight. Human AXL (aa 1-451) and cyno AXL (aa 1-449) were produced recombinantly as described in Example 10. Mouse AXL was purchased from Sino (cat. 51026-M08H). The next day, plates were blocked with 5% (w/v) dried milk in PBS. Murine mAbs (either hybridoma- or recombinantly-produced) or VHH-Fcs were diluted in PBS containing 1% BSA and 0.1% Tween-20 and added to wells for 2 hours at room temperature. Wells were washed 5× with PBS containing 0.1% Tween-20, then HRP-labeled protein A (diluted 1:1000 in PBS containing 1% BSA and 0.1% Tween™-20) was added to wells for 1 hour at room temperature. Wells were washed again 5× with PBS/0.1% Tween-20 and developed using TMB substrate. Absorbance was measured at 450 nm. As a positive control for mouse AXL binding, a commercial anti-mouse AXL mAb (clone 175128, R&D Systems MAB8541, rat IgG2A) was used and detected with donkey […] secondary antibody.
On the technique in general: An ELISA detects its analyte on a solid surface through an enzyme-linked reagent.

Test [9] addresses T1, recombinant human AXL extracellular …. Kind of test: ELISA on coated AXL ECD (100 ng/well), HRP-protein A. As to the method:
as §4

B1: NRC-sdAb002 (VHH monomer) (VHH)
VHH: QVQLVDSGGGLVQAGGSLRLSCATSTRTVSSAVMAWFRQAPEKVRDFVGFITNSGNILYDDSVKGRFTISRDNAQNTVYLQMNSLKPEDTAVYYCAAKWSFSSGYGDLRRAAMYDYWGQGTQVTVSS
notes: Llama VHH monomer; not shown: 6xHis and Myc tags
On to B1, for which the Kd in test [1] stood at 96 nM.

B2: hFC-F107-7H5 (antibody, human IgG1, kappa, V domains shown)
VH: QVQLQQPGAELVKPGASVKLSCKASGYTFTSYWINWVKQRPGQGLEWIGNIYPDSSSTNYNEKFKSKATLTVDKSSTTAYIQFSSLTSEDSAVYYCTRDTYGGSPDYWGQGTTLTVSS
VL: DIVMSQSPSSLAVSAGEKVTMSCKSSQSLLNSRTRKIYLAWYQQKPGQSPKLLIYWASTRQSGVPDRFTGSGSGTDFTLTISSVQAEDLAVYYCKQSYNLWTFGGGTKLEIKR
notes: Chimeric mAb, mouse VH/VL on human IgG1 heavy and human kappa light constant regions, made in CHO cells; also called mAb F107-7H5; hIgG-F107-7H5
As for B2, the Kd is 0.17 nM in test [2]; 925 nM in test [4]; 0.07 nM in [5]; 1 nM in test [6]; 0.0509 nM in test [7]. Moreover, the koff in test [3] was 0.0015 s⁻¹. Further, the kon in [3] worked out at 1.4e+06 M⁻¹ s⁻¹. For the same molecule, in test [8], the binding result is “no binding”. Besides, the EC50 in test [9] came out at 6 nM.

By koff is commonly meant the rate constant with which the complex falls apart. As a reminder, the kon is the rate constant with which the complex forms. For orientation: EC50 means the concentration needed to bring the measured effect to its halfway point.
